Values belong to the molecule of their own block, whether it stands above or below them.
Assays:
[1] = biological target: T1, Folylpolyglutamate synthase, mitochondrial (Homo sapiens, UniProt Q05932); assay: Binding affinity as Competitive substrate in the presence of […] aminopterin towards recombinant Human Folyl-polyglutamate synthase (FPGS)
T1 sequence (Q05932 whole entry): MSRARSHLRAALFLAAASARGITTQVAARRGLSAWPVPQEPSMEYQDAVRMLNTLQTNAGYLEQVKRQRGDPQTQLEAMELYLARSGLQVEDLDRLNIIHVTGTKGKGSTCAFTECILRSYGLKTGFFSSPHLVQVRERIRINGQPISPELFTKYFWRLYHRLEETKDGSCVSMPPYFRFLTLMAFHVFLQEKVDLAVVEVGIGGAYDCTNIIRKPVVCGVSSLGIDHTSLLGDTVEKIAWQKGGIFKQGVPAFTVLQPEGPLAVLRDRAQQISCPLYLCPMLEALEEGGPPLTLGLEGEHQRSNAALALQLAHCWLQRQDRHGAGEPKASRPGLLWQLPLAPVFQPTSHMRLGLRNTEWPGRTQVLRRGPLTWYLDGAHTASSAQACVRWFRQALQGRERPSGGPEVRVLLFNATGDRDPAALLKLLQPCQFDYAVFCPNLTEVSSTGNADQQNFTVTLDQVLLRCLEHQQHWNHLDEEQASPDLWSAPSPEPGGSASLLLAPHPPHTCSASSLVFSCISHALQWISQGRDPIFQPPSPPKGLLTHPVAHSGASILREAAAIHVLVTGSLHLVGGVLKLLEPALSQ

[2] = compound: Nc1nc(O)c2cc(CNc3ccc4c(c3)CN([C@@H](CCC(=O)O)C(=O)O)C4=O)cnc2n1; assay: (§1) Binding affinity as Competitive substrate in the presence of 10 uM tetrahydrofolate towards recombinant Human Folyl-polyglutamate synthase (FPGS)
[3] = compound: Nc1nc(O)c2c(n1)NCC(CNc1ccc3c(c1)CN([C@@H](CCC(=O)O)C(=O)O)C3=O)C2; assay: as §1
[4] = compound: Nc1nc(O)c2c(n1)NCC(CNc1ccc(C(=O)NC(CCC(=O)O)C(=O)O)cc1)C2; assay: as §1

Ki [1]: 110 µM
Molecule: NCCC[C@@H](C(=O)O)N1Cc2cc(NCc3cnc4nc(N)[nH]c(=O)c4c3)ccc2C1=O

Ki [1]: 0.2 µM
Molecule: NCCC[C@@H](C(=O)O)N1Cc2cc(NCC3CNc4nc(N)nc(O)c4C3)ccc2C1=O (stereo not given in full)

B1: Folylpolyglutamate synthase, mitochondrial (Homo sapiens), Q05932 (protein)
chain: T1 sequence (Q05932 whole entry)
Km [2]: 2.3 µM | Km [3]: 0.018 µM | Km [4]: 0.26 µM
